Source: publication PMC7732827, “Autoregulation of yeast ribosomal proteins discovered by efficient search for feedback regulation”

Molecular target: Rpl1B-HIS (Saccharomyces cerevisiae, UniProt P0CX44 1-217)
Test: EMSA; 20 mM Mg2+; 400 nM RNA, 0.1-1 ug protein in 10 ul; 50 mM Tris-HCl pH 8.5, 350 mM KCl, 20 mM MgCl2, 0.1% NP-40, 10% glycerol, 30 min at 4 C; 7.5% Tris-glycine PAGE in the cold room
Details: protein: recombinant; tags: C-terminal His6 (HHHHHH); label: none (SYBR Green I stain); two hairpins (HP1, HP2), predicted

Rpl1B-HIS, sequence (P0CX44 whole entry): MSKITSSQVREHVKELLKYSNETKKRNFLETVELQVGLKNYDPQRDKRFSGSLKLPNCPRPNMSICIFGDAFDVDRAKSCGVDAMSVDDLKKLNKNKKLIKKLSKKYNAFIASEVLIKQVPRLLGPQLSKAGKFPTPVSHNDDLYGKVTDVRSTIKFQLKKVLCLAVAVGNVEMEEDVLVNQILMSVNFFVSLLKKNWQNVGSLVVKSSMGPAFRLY

B1: RPL1B-UTR RNA, synthetic (structured_RNA)
RNA: AUAGAACUAGUCGCAAGCCUCACGGACCACCAAAUACUUUGGAAGACUAAUUACAUAUCAUAAA
B1: binds.
